This assay concerns the target T1, C. elegans syntaxin-GST (UNC-64 cytoplasmic domain, aa 1-266) (C. elegans, UniProt O16000 1-266).
T1 construct: C. elegans syntaxin (UNC-64), cytoplasmic domain aa 1-266, lacking the TM domain, cloned into pGEX-2T; pGEX-2T normally puts GST at the N-terminus (surmise); also called GST syntaxin; source: recombinant, batch-purified with glutathione agarose under native conditions
T1 sequence (looked up): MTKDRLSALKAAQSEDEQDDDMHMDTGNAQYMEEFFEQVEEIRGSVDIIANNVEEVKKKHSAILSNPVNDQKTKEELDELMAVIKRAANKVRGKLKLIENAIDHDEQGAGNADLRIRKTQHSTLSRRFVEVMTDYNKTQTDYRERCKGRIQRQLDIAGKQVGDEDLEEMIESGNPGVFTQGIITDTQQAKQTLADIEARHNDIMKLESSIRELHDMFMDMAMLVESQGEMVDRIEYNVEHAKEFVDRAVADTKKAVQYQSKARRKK
As to the kind of experiment: pull-down; ~1.6 uM each of C. elegans syntaxin-GST, rat SNAP-25-His6 and His6-TOM-1Ct or His6-SNB-1, 2 h to overnight at 4 °C in D-buffer, isolated on glutathione agarose; Coomassie Blue staining, densitometry. Conditions: both partners purified.

B1: C. elegans synaptobrevin SNB-1 cytoplasmic domain (aa 1-88), His6T7-tagged (domain or fragment, UniProt O02495 1-88, looked up)
chain: MDAQGDAGAQGGSQGGPRPSNKRLQQTQAQVDEVVGIMKVNVEKVLERDQKLSQLDDRADALQEGASQFEKSAATLKRKYWWKNIKMM
notes: C. elegans synaptobrevin (SNB-1), cytoplasmic domain aa 1-88, lacking the TM domain, cloned into pRSETC; also called His6T7-tagged SNB-1; His6-SNB-1; source: recombinant, purified (Ni-NTA agarose)
For B1, the binding result was “binds”.

Values taken from PMC1514790, “Tomosyn Inhibits Synaptic Vesicle Priming in Caenorhabditis elegans” (PLoS Biology, 2006).
